Assay [1] addresses T1, EBV gH/gL (gH 19-679 linked to gL 24-137 by (G4S)3) (Epstein-Barr virus (human …)).
T1 construct: also called gH/gL WT; source: 293F, transfected, purified (Ni-NTA, SEC); not shown: HIS Tag, C-terminal, kept
Briefly: SPR. The following applies: both partners purified.

Assay [2] deals with T2, EBV gH/gL on the surface of CHO-K1 effector cells (Epstein-Barr virus, UniProt P03231;P03212).
T2 construct: also called gH/gL and gB fusion machinery
Briefly: flow cytometry on cells. Conditions: one partner purified. In general terms: A flow cytometer gives signals particle by particle.

These results are taken from PMC8595662 (Nature Communications, 2021).

B1: AMMO1 (antibody, V domains shown)
VH: QVQLVQSGADVKKPGASVKVSCKASGYTFIHFGISWVRQAPGQGLEWMGWIDTNNGNTNYAQSLQGRVTMTTDTSTGTAYMELRSLSTDDTAVYFCARALEMGHRSGFPFDYWGQGVLVTVSP
VL: SYELTQPPSVSVAPGQRATITCGGHNIGAKNVHWYQQKPGQAPVLVIQYDSDRPSGIPERFSGSNSGSTATLTISRVEAGDEADYYCQVWDSGRGHPLYVFGGGTKVTVL
For the molecule B1, in assay [1], the koff amounted to 8.5e-05 s⁻¹ and the kon is 577000 M⁻¹ s⁻¹.

B2: AMMO1, human gH/gL-specific neutralizing antibody (recombinant IgG1) (antibody, V domains shown)
VH: QVQLVQSGADVKKPGASVKVSCKASGYTFIHFGISWVRQAPGQGLEWMGWIDTNNGNTNYAQSLQGRVTMTTDTSTGTAYMELRSLSTDDTAVYFCARALEMGHRSGFPFDYWGQGVLVTVSP
VL: SYELTQPPSVSVAPGQRATITCGGHNIGAKNVHWYQQKPGQAPVLVIQYDSDRPSGIPERFSGSNSGSTATLTISRVEAGDEADYYCQVWDSGRGHPLYVFGGGTKVTVL
Turning to B2, the binding result in assay [2] was “binds”.

As a reminder, the koff is a measure of how fast the partners let go of each other. A lower koff goes with slow dissociation. Usually kon stands for a measure of how fast the partners come together. Low readings indicate slower complex formation, high ones faster complex formation.
